Data set [1] has as its system K4 kissing-loop RNA reporter. Briefly: apparent KD of K4 kissing-loop reporter; higher = weaker reporter binding. To be noted: Eterna round: R107. The protocol:
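RNA-MaP round R107: designed RNA switches with theophylline, tryptophan, arginine or FMN aptamers are transcribed on-chip within common flanks. They are titrated with a labelled K4 kissing-loop RNA reporter in RNA-MaP buffer (100 mM Tris pH 7.5, 80 mM KCl, 4 mM MgCl2), without ligand or with the indicated ligand. Median apparent KD per design.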

Another data set relates to MS2 coat protein. In words: apparent KD of MS2 coat protein; designed switch direction (-1 OFF switch, 1 ON switch): -1; higher = weaker reporter binding. The gist of the method: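 Designed RNA switches sharing common flanks were transcribed on Illumina chips by stalled E. coli RNA polymerase. They were titrated with SNAP-549-labelled MS2 coat protein, from 0.7 or 1.5 nM doubling to 3 µM, in Tris-HCl pH 7.5 buffer with KCl, MgCl2, BSA, DTT, tRNA and Tween-20. Titrations ran without input, with 200 uM small-molecule ligand, or with an oligonucleotide input. The apparent KD of each design is the median over its clusters, after curve-fitting of normalised cluster fluorescence.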

Where [2] appears, read: input ligand: theophylline 20 uM.
The mark [3] stands for this setting: input ligand: tryptophan 2.4 mM.
Setting [4] is: Eterna round: R95, input ligand: microRNA oligo, concentration not stated.
Where [5] appears, read: input ligand: microRNA oligo, concentration not stated.
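Throughout, for apparent KD of K4 kissing-loop reporter: bound reporter read as fluorescence of individual clusters on recovered sequencing chips by microscopy, with normalized cluster intensities fitted with a binding model.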

“AAAACGCUGGAUGAAUAACAUCUAGCGAAUCGAGGACCGGUACGGCCGCCACUCGGAGCUAAACUGCGAGUGAUGUUCGUAAAAU [Mat - Mod of OpenEnded 3 - D18]”: the “apparent KD of K4 kissing-loop reporter” value is 405 nM in data set [1] (input ligand: FMN 200 uM); 223 nM in data set [1] (input ligand: arginine 13.2 mM); 588 nM in data set [1] (input ligand: none); 426 nM in data set [1] (setting [2]); 428 nM in data set [1] (setting [3]).
As to “AAAAGCCUACAGGAUACCAGCCGAAUACUAAAAGGCUGGAGUGAUGUUCCAGCUUGCCGCGGCCCUUGGCAGCCUAGCUGGGUGA [Soatriti]”, the “apparent KD of K4 kissing-loop reporter” value in data set [1] (input ligand: FMN 200 uM) is 248 nM; in data set [1] (input ligand: arginine 13.2 mM), 258 nM; in data set [1] (input ligand: none), 507 nM; in data set [1] (setting [2]) it was 341 nM; in data set [1] (setting [3]) it was 286 nM.
For the sequence “AAAAUAAACCAGUGAUGUUGGUAACCAGAUACCAGCGACGAAAGUCGCCCUUGGCAGCUGUGGACGUACAAAAUAAGUACGUCCU”, the “apparent KD of K4 kissing-loop reporter” value stood at 218 nM in data set [1] (input ligand: FMN 200 uM); 264 nM in data set [1] (input ligand: arginine 13.2 mM); 257 nM in data set [1] (input ligand: none); 223 nM in data set [1] (setting [2]); 199 nM in data set [1] (setting [3]).
Taken in the same sequence, the figures for “AAAAUAAACCAGUGAUGUUGGUAUCCGGAUACCAGCGAUAAUCAUCGCCCUUGGCAGCCGCGGACGUACAAAAUAAGUACGUCCU [MatMod 14 - Jieux - Same State - Theophylline A]” were 208 nM, 135 nM, 175 nM, 268 nM and 182 nM.
Taken in the same sequence, the figures for “AAAAUAAAGCAGUGAUGUUGCAUAUGAGAAGGAGCGCACGAAAGUGCAGGUAGGUCGCUCAGCCAAGUGGACGAAAACGUCCACA [#OpenEnded 9 #K4Early]” were 107 nM, 172 nM, 119 nM, 168 nM and 93.7 nM.
The matching figures for “AAAAUAAAUCAGUGAUGUUGGUAUCCGGAUACCAGCGAUAAUCAUCGCCCUUGGCAGCCGUGGACGUACAAAAUAAGUACGUCCU [MatMod 16 - Jieux - Same State - Theophylline A]”: 137 nM, 104 nM, 168 nM, 171 nM and 183 nM.
As to “AAAAUAACCCAGUGAUGUUGGUCUCCAGAUACCAGCGACGAAAGUCGCCCUUGGCAGCUGUGGACGUACAAAAUAAGUACGUCCU”, the “apparent KD of K4 kissing-loop reporter” value in data set [1] (input ligand: FMN 200 uM) amounted to 661 nM; in data set [1] (input ligand: arginine 13.2 mM) it was 629 nM; in data set [1] (input ligand: none) it was 776 nM; in data set [1] (setting [2]) it was 485 nM; in data set [1] (setting [3]) it was 558 nM.
Taken in the same sequence, the figures for “AAAAUAAUCCAGUGAUGUUGGUCUCCAGAUACCAGCGACGAAAGUCGCCCUUGGCAGCUGUGGACGUACAAAAUAAGUACGUCCU” were 366 nM, 416 nM, 464 nM, 345 nM and 314 nM.
“UUUUAACAUGAGGAUCACCCAUGUGAGGAUAUCGAAAUUUAUAUUUAUAUUAAUAUUACGAGAAGGCACAUUUU [JMF 82] (puzzle: Exclusion 1)”: in the data set on MS2 coat protein (setting [4]), the “apparent KD of MS2 coat protein” value was 89.6 nM.
“UUUUAAUAUGAAGGAUAUACUUAACAUGAGGAUCACCCAUGUGGUGUUGUGAGUGAGUGAGUUUAGUAGAAGGUCAAUUAUUUU [JMF's solution 25] (Eterna round: R96, puzzle: Exclusion NG 2)”: the “apparent KD of MS2 coat protein” value in the data set with MS2 coat protein (input ligand: FMN 200 uM) is 1020 nM; with MS2 coat protein (setting [5]), 249 nM; in the data set with MS2 coat protein (input ligand: none), 405 nM.
As for “UUUUACAUAGGAUAUAGUUUGUUGUACAUGAGGAUCACCCAUGUUUUUGUUUGUGCUUUUCUAGAAGGAUGUUUCU [JR_E5_Sub016] (puzzle: Exclusion 5)”, the “apparent KD of MS2 coat protein” value with MS2 coat protein (setting [4]) amounted to 28.9 nM.
On the same count and under the same terms, the value for “UUUUACCGAGGAUAUACAUAUAAAUAAUAAUCCUCAUUAUUACAUGAGGAUCACCCAUGUAGAAGGCGGAUUUU [Mat - Exclusion 2 - Mod of Hog - D88] (puzzle: Exclusion 2)” was 96.3 nM.
As for “UUUUAGAGAGGAUAUAUAUUGUGAAACAUGAGGAUCACCCAUGUAAUAAUAUGGAUAUAAAUAGAAGGCUCAUUUA [Mat - Exclusion 5 - JL mod - D8] (puzzle: Exclusion 5)”, the “apparent KD of MS2 coat protein” value in the data set with MS2 coat protein (Eterna round: R95, input ligand: FMN 200 uM) was found to be 25.7 nM; with MS2 coat protein (setting [4]) it was 26.9 nM; in the data set on MS2 coat protein (Eterna round: R95, input ligand: none) it was 28.8 nM.
Take “UUUUAGCAAGCGAGUAUUAACAUGAGGAUCACCCAUGUGCAUCCAGUAUUACUUUUAGAUCAAGCUCGUCUUAUAUA [JR_STOV1_v2_Sub082] (Eterna round: R97, puzzle: Sensor, turn-off variant 1)”: the “apparent KD of MS2 coat protein” value was 199 nM in the data set with MS2 coat protein (input ligand: FMN 200 uM) and 285 nM in the data set with MS2 coat protein (input ligand: none).
For “UUUUAGCAAGGAUAUACAUUUUUUUUAUUAUCCUCAUUAUUACAUGAGGAUCACCCAUGUAGAAGGUGCAUUUU [My Design] (puzzle: Exclusion 2)”, the “apparent KD of MS2 coat protein” value with MS2 coat protein (setting [4]) is 36.7 nM.
With “UUUUAGUAAGGAUAUGAUUAGAUCUACGAAAGUAGAUCUAAUCAGAAGGUACAUGAGGAUCACCCAUGUAGAUU [Mod of Brourd 3 - Jieux - Exclusion 4] (Eterna round: R97, puzzle: Exclusion 4)”, the “apparent KD of MS2 coat protein” value turned out to be 24.2 nM with MS2 coat protein (input ligand: FMN 200 uM) and 18.5 nM with MS2 coat protein (input ligand: none).
Taken in the same sequence, the figures for “UUUUAGUCAGGAUAUACAUGAGGAUCACCCAUGUAAAAUUUUAAUUUAAUUUGAAUGUGUAGAAGGGACAUUUU [Ex3 #41] (Eterna round: R97, puzzle: Exclusion 3)” were 23.6 nM and 26.4 nM.
Regarding “UUUUAUUGCAAGGAUAUGCAAAUUAUUAUUAAUGCAGAAGGUGCUACAUGAGGAUCACCCAUGUUUCUGGGUUU [JR_E6_Sub043] (puzzle: Exclusion 6)”, in the data set on MS2 coat protein (setting [4]), the “apparent KD of MS2 coat protein” value is 110 nM.
For “UUUUCGUAAGGAUAUGGUUAGAUCUACGAAAGUAGAUCUAACCAGAAGGUACAUGAGGAUCACCCAUGUUGGUA [Mod of Brourd 22 - Jieux - Exclusion 4] (Eterna round: R97, puzzle: Exclusion 4)”, the “apparent KD of MS2 coat protein” value amounted to 79.8 nM with MS2 coat protein (input ligand: FMN 200 uM) and 29.9 nM in the data set on MS2 coat protein (input ligand: none).
The matching figures for “UUUUGCACGCUGCGGUCCUACAUGAGGAUCACCCAUGUGGUCUGGUGGCGUGGGUCGCCGGACUUGGCUCGUCUUGA [salish99_S_TOV1_R5_037] (Eterna round: R97, puzzle: Sensor, turn-off variant 1)”: 17.5 nM and 18.2 nM.
Taken in the same sequence, the figures for “UUUUGCUCAGGAUAUACAUGAGGAUCACCCAUGUAUAUUGAAGGUAAUACAUGGGAAUGUAGAAGGGAGCUCAU [Omei Ex3 Pseudoloop 21] (Eterna round: R97, puzzle: Exclusion 3)” were 47.9 nM and 70.4 nM.
Consider “UUUUGGCAUGUAGGAUAUGGGUCCGAUUAGGAUUUAGAAGGACAUGAGGAUCACCCAUGUGCACUUAAUUGGUCUUUUUUUUUU [EXclNG1-LROPPY16] (Eterna round: R96, puzzle: Exclusion NG 1)”, for which the “apparent KD of MS2 coat protein” value was 37.7 nM in the data set with MS2 coat protein (input ligand: FMN 200 uM), 23.5 nM with MS2 coat protein (setting [5]) and 36.5 nM with MS2 coat protein (input ligand: none).
Turning to “UUUUGGCAUGUAGGAUAUGGGUCCGAUUAGGAUUUAGAAGGACAUGAGGAUCACCCAUGUGCAUUUAAUUGGUCAUUACCUUUU [EXclNG1-LROPPY11] (Eterna round: R96, puzzle: Exclusion NG 1)”, in the data set with MS2 coat protein (setting [5]), the “apparent KD of MS2 coat protein” value is 65.5 nM.
“UUUUGGCAUGUAGGAUAUGGGUCCGAUUGGGAUUUAGAAGGACAUGAGGAUCACCCAUGUGCCCUUACUUGGUCUUUUUUUUUU [EXclNG1-LROPPY19] (Eterna round: R96, puzzle: Exclusion NG 1)”: the “apparent KD of MS2 coat protein” value is 298 nM in the data set on MS2 coat protein (input ligand: FMN 200 uM), 128 nM in the data set with MS2 coat protein (setting [5]) and 228 nM in the data set with MS2 coat protein (input ligand: none).
“UUUUGUCAGGUAUUUAUUAACAUGAGGAUCACCCAUGUGCAUCCAAAAUUACUUUUAGAUCAAGCUCGUCUUAUAUA [JR_STOV1_Sub089] (Eterna round: R97, puzzle: Sensor, turn-off variant 1)”: the “apparent KD of MS2 coat protein” value with MS2 coat protein (input ligand: FMN 200 uM) was 94.3 nM; in the data set on MS2 coat protein (input ligand: none), 102 nM.
For “UUUUUAUAUGAAGGAUAUACUUAACAUGAGGAUCACCCAUGUGGUGUUGUGAGUGAGUGAGUUUAGUAGAAGGUCAAUUCUUAU [JMF's solution 82] (Eterna round: R96, puzzle: Exclusion NG 2)”, the figures for the “apparent KD of MS2 coat protein” value in the data set with MS2 coat protein (input ligand: FMN 200 uM), in the data set on MS2 coat protein (setting [5]) and with MS2 coat protein (input ligand: none) were 516 nM, 651 nM and 395 nM, respectively.
Take “UUUUUAUUUGAAGGAUAUACUUAACAUGAGGAUCACCCAUGUGGUGUUGUGAGUGAGUGAGUUUAGUAGAAGGUCAAUUAUUUU [JMF's solution 18] (Eterna round: R96, puzzle: Exclusion NG 2)”: in the data set on MS2 coat protein (setting [5]), the “apparent KD of MS2 coat protein” value was found to be 359 nM.
For “UUUUUCUCAGGAUAUACAUGAGGAUCACCCAUGUAUAUUAAGGAUAAUACAUGGGAAUGUAGAAGGGAGCUCAU [Omei Ex3 Pseudoloop 12] (Eterna round: R97, puzzle: Exclusion 3)”, the “apparent KD of MS2 coat protein” value is 106 nM in the data set with MS2 coat protein (input ligand: FMN 200 uM) and 160 nM in the data set on MS2 coat protein (input ligand: none).
Consider “UUUUUGUAUGAAGGAUAUACUUAACAUGAGGAUCACCCAUGUGGUGUUGUGAGUGAGUGAGUUUAGUAGAAGGUCAAGUAUUUU [JMF's solution 46] (Eterna round: R96, puzzle: Exclusion NG 2)”, for which the figures for the “apparent KD of MS2 coat protein” value in the data set on MS2 coat protein (input ligand: FMN 200 uM), in the data set with MS2 coat protein (setting [5]) and with MS2 coat protein (input ligand: none) were 580 nM, 606 nM and 390 nM, respectively.
For the sequence “UUUUUGUCAGGAUAUGACUAGAUGCACGUUAGUGUAUUUACUUAGAAGGGACAUGAGGAUCACCCAUGUAUUCC [Bring Us a Shrubbery-13] (puzzle: Exclusion 4)”, in the data set with MS2 coat protein (setting [4]), the “apparent KD of MS2 coat protein” value was 26.2 nM.
The same measure, in the same setting: next, “UUUUUGUGAGGAUAUCAGUAGUAAAAAAAUAAAAUUACUACUGAGAAGGCACAUGAGGAUCACCCAUGUUUUUC [salish99_ex4_r3_014] (puzzle: Exclusion 4)”: 35.6 nM; “UUUUUUGUUGUGAGGAUAUCGUUGUGGAUGUGGAUCGAGAAGGCACAUGAGGAUCACCCAUGUUUGUUGUGGUU [JR_BMOE4_Sub085] (puzzle: Brourd's mod of Exclusion 4)”: 86.7 nM.
Regarding “UUUUUUUUGGUAAGGAUAUGAUGCAGGAAACUGCGUCAGAAGGUACAUGAGGAUCACCCAUGUUAAUUUUUUUU [Explosion 11 - Jieux - Brourd's mod of Exclusion 4] (Eterna round: R97, puzzle: Brourd's mod of Exclusion 4)”, the “apparent KD of MS2 coat protein” value worked out at 23 nM in the data set with MS2 coat protein (input ligand: FMN 200 uM) and 18.6 nM with MS2 coat protein (input ligand: none).
